Tests used:
[1] = biological target: Human CD3eg linker (human); test: SPR; fold vs parent H183/L072
[2] = biological target: Human CD137 ECD (human); test: Biacore SPR, vs parent H183/L072
Chain of Human CD137 ECD (human) (chain, as listed by the source limits assumed): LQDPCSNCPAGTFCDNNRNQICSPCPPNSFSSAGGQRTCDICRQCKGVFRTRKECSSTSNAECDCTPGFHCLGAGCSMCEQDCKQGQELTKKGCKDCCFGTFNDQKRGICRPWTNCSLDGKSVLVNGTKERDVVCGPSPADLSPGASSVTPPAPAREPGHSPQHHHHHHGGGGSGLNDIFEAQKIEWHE

Chain of Human CD3eg linker (human) (chain, as listed by the source limits assumed): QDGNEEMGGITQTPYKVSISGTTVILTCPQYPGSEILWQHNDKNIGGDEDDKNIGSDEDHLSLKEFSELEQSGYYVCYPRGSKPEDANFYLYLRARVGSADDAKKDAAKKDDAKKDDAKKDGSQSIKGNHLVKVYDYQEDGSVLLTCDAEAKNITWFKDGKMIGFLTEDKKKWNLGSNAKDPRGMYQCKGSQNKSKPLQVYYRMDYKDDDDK

Binder | fold change of affinity [1] | fold change of affinity [2]
H183/L072 VL L27bR (antibody, name in Kabat numbering, V domains shown) VH: QVQLVESGGGLVQPGRSLRLSCAASGFTFSNAWMHWVRQAPGKGLEWVAQIKDKGNAYAAYYAPSVKGRFTISRDDSKNSIYLQMNSLKTEDTAVYYCHYVHYASASTVLPAFGVDAWGQGTTVTVSS VL: DIVMTQSPLSLPVTPGEPASISCQASQERVHMNRNTYLHWYQQKPGQAPRLLIYKVSNRFPGVPDRFSGSGSGTDFTLKISRVEAEDVGVYYCAQGTSVPFTFGQGTKLEIK | 0 fold | 0 fold
H183/L072 VL H34W (antibody, name in Kabat numbering, V domains shown) VH: QVQLVESGGGLVQPGRSLRLSCAASGFTFSNAWMHWVRQAPGKGLEWVAQIKDKGNAYAAYYAPSVKGRFTISRDDSKNSIYLQMNSLKTEDTAVYYCHYVHYASASTVLPAFGVDAWGQGTTVTVSS VL: DIVMTQSPLSLPVTPGEPASISCQASQELVHMNRNTYLWWYQQKPGQAPRLLIYKVSNRFPGVPDRFSGSGSGTDFTLKISRVEAEDVGVYYCAQGTSVPFTFGQGTKLEIK | 0 fold | 0 fold
H183/L072 VL H34A (antibody, name in Kabat numbering, V domains shown) VH: QVQLVESGGGLVQPGRSLRLSCAASGFTFSNAWMHWVRQAPGKGLEWVAQIKDKGNAYAAYYAPSVKGRFTISRDDSKNSIYLQMNSLKTEDTAVYYCHYVHYASASTVLPAFGVDAWGQGTTVTVSS VL: DIVMTQSPLSLPVTPGEPASISCQASQELVHMNRNTYLAWYQQKPGQAPRLLIYKVSNRFPGVPDRFSGSGSGTDFTLKISRVEAEDVGVYYCAQGTSVPFTFGQGTKLEIK |  | 0 fold
H183/L072 VL Y32R (antibody, name in Kabat numbering, V domains shown) VH: QVQLVESGGGLVQPGRSLRLSCAASGFTFSNAWMHWVRQAPGKGLEWVAQIKDKGNAYAAYYAPSVKGRFTISRDDSKNSIYLQMNSLKTEDTAVYYCHYVHYASASTVLPAFGVDAWGQGTTVTVSS VL: DIVMTQSPLSLPVTPGEPASISCQASQELVHMNRNTRLHWYQQKPGQAPRLLIYKVSNRFPGVPDRFSGSGSGTDFTLKISRVEAEDVGVYYCAQGTSVPFTFGQGTKLEIK | 0 fold | 0 fold
H183/L072 VL R54N (antibody, name in Kabat numbering, V domains shown) VH: QVQLVESGGGLVQPGRSLRLSCAASGFTFSNAWMHWVRQAPGKGLEWVAQIKDKGNAYAAYYAPSVKGRFTISRDDSKNSIYLQMNSLKTEDTAVYYCHYVHYASASTVLPAFGVDAWGQGTTVTVSS VL: DIVMTQSPLSLPVTPGEPASISCQASQELVHMNRNTYLHWYQQKPGQAPRLLIYKVSNNFPGVPDRFSGSGSGTDFTLKISRVEAEDVGVYYCAQGTSVPFTFGQGTKLEIK |  | 0.06 fold
H183/L072 VL A25F (antibody, name in Kabat numbering, V domains shown) VH: QVQLVESGGGLVQPGRSLRLSCAASGFTFSNAWMHWVRQAPGKGLEWVAQIKDKGNAYAAYYAPSVKGRFTISRDDSKNSIYLQMNSLKTEDTAVYYCHYVHYASASTVLPAFGVDAWGQGTTVTVSS VL: DIVMTQSPLSLPVTPGEPASISCQFSQELVHMNRNTYLHWYQQKPGQAPRLLIYKVSNRFPGVPDRFSGSGSGTDFTLKISRVEAEDVGVYYCAQGTSVPFTFGQGTKLEIK | 0 fold | 0 fold
H183/L072 VL L33R (antibody, name in Kabat numbering, V domains shown) VH: QVQLVESGGGLVQPGRSLRLSCAASGFTFSNAWMHWVRQAPGKGLEWVAQIKDKGNAYAAYYAPSVKGRFTISRDDSKNSIYLQMNSLKTEDTAVYYCHYVHYASASTVLPAFGVDAWGQGTTVTVSS VL: DIVMTQSPLSLPVTPGEPASISCQASQELVHMNRNTYRHWYQQKPGQAPRLLIYKVSNRFPGVPDRFSGSGSGTDFTLKISRVEAEDVGVYYCAQGTSVPFTFGQGTKLEIK | 0 fold | 0 fold
H183/L072 VL H34Y (antibody, name in Kabat numbering, V domains shown) VH: QVQLVESGGGLVQPGRSLRLSCAASGFTFSNAWMHWVRQAPGKGLEWVAQIKDKGNAYAAYYAPSVKGRFTISRDDSKNSIYLQMNSLKTEDTAVYYCHYVHYASASTVLPAFGVDAWGQGTTVTVSS VL: DIVMTQSPLSLPVTPGEPASISCQASQELVHMNRNTYLYWYQQKPGQAPRLLIYKVSNRFPGVPDRFSGSGSGTDFTLKISRVEAEDVGVYYCAQGTSVPFTFGQGTKLEIK | 0 fold | 0 fold
H183/L072 VL A25Y (antibody, name in Kabat numbering, V domains shown) VH: QVQLVESGGGLVQPGRSLRLSCAASGFTFSNAWMHWVRQAPGKGLEWVAQIKDKGNAYAAYYAPSVKGRFTISRDDSKNSIYLQMNSLKTEDTAVYYCHYVHYASASTVLPAFGVDAWGQGTTVTVSS VL: DIVMTQSPLSLPVTPGEPASISCQYSQELVHMNRNTYLHWYQQKPGQAPRLLIYKVSNRFPGVPDRFSGSGSGTDFTLKISRVEAEDVGVYYCAQGTSVPFTFGQGTKLEIK | 0 fold | 0 fold
H183/L072 VL F55A (antibody, name in Kabat numbering, V domains shown) VH: QVQLVESGGGLVQPGRSLRLSCAASGFTFSNAWMHWVRQAPGKGLEWVAQIKDKGNAYAAYYAPSVKGRFTISRDDSKNSIYLQMNSLKTEDTAVYYCHYVHYASASTVLPAFGVDAWGQGTTVTVSS VL: DIVMTQSPLSLPVTPGEPASISCQASQELVHMNRNTYLHWYQQKPGQAPRLLIYKVSNRAPGVPDRFSGSGSGTDFTLKISRVEAEDVGVYYCAQGTSVPFTFGQGTKLEIK |  | 0 fold
H183/L072 VL L27bY (antibody, name in Kabat numbering, V domains shown) VH: QVQLVESGGGLVQPGRSLRLSCAASGFTFSNAWMHWVRQAPGKGLEWVAQIKDKGNAYAAYYAPSVKGRFTISRDDSKNSIYLQMNSLKTEDTAVYYCHYVHYASASTVLPAFGVDAWGQGTTVTVSS VL: DIVMTQSPLSLPVTPGEPASISCQASQEYVHMNRNTYLHWYQQKPGQAPRLLIYKVSNRFPGVPDRFSGSGSGTDFTLKISRVEAEDVGVYYCAQGTSVPFTFGQGTKLEIK | 0 fold | 0 fold
H183/L072 VL A25W (antibody, name in Kabat numbering, V domains shown) VH: QVQLVESGGGLVQPGRSLRLSCAASGFTFSNAWMHWVRQAPGKGLEWVAQIKDKGNAYAAYYAPSVKGRFTISRDDSKNSIYLQMNSLKTEDTAVYYCHYVHYASASTVLPAFGVDAWGQGTTVTVSS VL: DIVMTQSPLSLPVTPGEPASISCQWSQELVHMNRNTYLHWYQQKPGQAPRLLIYKVSNRFPGVPDRFSGSGSGTDFTLKISRVEAEDVGVYYCAQGTSVPFTFGQGTKLEIK | 0 fold | 0 fold
H183/L072 VL H34F (antibody, name in Kabat numbering, V domains shown) VH: QVQLVESGGGLVQPGRSLRLSCAASGFTFSNAWMHWVRQAPGKGLEWVAQIKDKGNAYAAYYAPSVKGRFTISRDDSKNSIYLQMNSLKTEDTAVYYCHYVHYASASTVLPAFGVDAWGQGTTVTVSS VL: DIVMTQSPLSLPVTPGEPASISCQASQELVHMNRNTYLFWYQQKPGQAPRLLIYKVSNRFPGVPDRFSGSGSGTDFTLKISRVEAEDVGVYYCAQGTSVPFTFGQGTKLEIK | 0 fold | 0 fold
H183/L072 VL H34R (antibody, name in Kabat numbering, V domains shown) VH: QVQLVESGGGLVQPGRSLRLSCAASGFTFSNAWMHWVRQAPGKGLEWVAQIKDKGNAYAAYYAPSVKGRFTISRDDSKNSIYLQMNSLKTEDTAVYYCHYVHYASASTVLPAFGVDAWGQGTTVTVSS VL: DIVMTQSPLSLPVTPGEPASISCQASQELVHMNRNTYLRWYQQKPGQAPRLLIYKVSNRFPGVPDRFSGSGSGTDFTLKISRVEAEDVGVYYCAQGTSVPFTFGQGTKLEIK | 0 fold | 0 fold
